Results reported in the supplement of paper PMC10724198.
± gives the standard deviation of the averaged measurements.

Test system: Saccharomyces cerevisiae
Assay: protein stability index of tFT-peptide fusion (C-terminal peptide) (PSI (0-1 scale)); higher = more stable (slower turnover)
Details: genetic background: wild type; temperature: 30 C
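Note: PSI is a weighted mean of sequencing reads over stability bins, variants kept only with over 10 reads, mCherry proximal and sfGFP distal, peptide attached via GGGS linker.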

Sequence	protein stability index
TTGKEAQYEARK	0.664 ± 0.071
TTPYVRTSPRKP	0.654 ± 0.0091
TTQTYAPLTPHR	0.64 ± 0.097
TTSKQHRPKQMN	0.708 ± 0.23
TVAVCPKIDYSV	0.667 ± 0.0085
TVGKGCGGAEGG	0.6439 ± 0.0029
TVGRILEVSRRG	0.66 ± 0.025
TVILQRNPKIIV	0.652 ± 0.058
TVLHLCMMTFLI	0.576 ± 0.0084
TVLPAPYRSLYR	0.714 ± 0.1
TVNIIREEKAGG	0.68 ± 0.031
TVVTIGAHIGPR	0.78 ± 0.048
TVWCRLKGEGRS	0.737 ± 0.084
TWARRAHALRCR	0.493 ± 0.015
TWIRIEQKTEVR	0.631 ± 0.017
TWQWGAFNRIKG	0.68 ± 0.13
TWSLLHDTQTWD	0.78 ± 0.068
TWSSLVSAVRRN	0.701 ± 0.079
TYACRQEWRESR	0.731 ± 0.041
TYFIVGGCGFFG	0.643 ± 0.06
TYRLSHFFKILP	0.566 ± 0.013
TYSPPSPTPPAR	0.656 ± 0.055
TYSTLHILLSSS	0.602 ± 0.014
TYTCRQVSCNAL	0.681 ± 0.012
VAAFGGGGTNGV	0.665 ± 0.075
VADGEAGPLFKI	0.644 ± 0.069

Sequence	protein stability index
VAFLSSADLLPP	0.676 ± 0.056
VAGAVGSAQFER	0.649 ± 0.13
VAGFYCQKWFSI	0.657 ± 0.08
VAGGGVAMVGSA	0.619 ± 0.069
VAGLARVSLHGF	0.6746 ± 0.0052
VAGWGAGREAAY	0.657 ± 0.026
VALAPLRDVPSG	0.681 ± 0.043
VALLLGSRFDFT	0.6627 ± 0.0023
VANRFRSILVRR	0.599 ± 0.023
VAPPRLSHGAPY	0.545 ± 0.061
VASKVNLPVWFW	0.702 ± 0.021
VAVGIEGGGWGV	0.764 ± 0.032
VAVRGGCGDWGR	0.689 ± 0.021
VCCAQVCICCLR	0.58 ± 0.017
VCFSCLFHESCL	0.726 ± 0.042
VCFSPVARRDVY	0.771 ± 0.049
VCFVGGGGSCRD	0.635 ± 0.068
VCGLGGGQWQGV	0.729 ± 0.028
VCGNRLSATAIT	0.684 ± 0.084
VCGQRLKDVGVG	0.499 ± 0.037
VCHYKVSFSCLL	0.64 ± 0.044
VCIGGGGVVLGL	0.645 ± 0.04
VCLATPPSTVTP	0.619 ± 0.065
VCLGRSEETLSS	0.608 ± 0.15
VCLRRYGVMADV	0.628 ± 0.015
VCPGMLVYGRGI	0.744 ± 0.092

Sequence	protein stability index
VCPILMARHCVE	0.691 ± 0.057
VCPSPSTPPGLF	0.695 ± 0.019
VCRSSGSFDLGI	0.774 ± 0.064
VCSFLSVDASPP	0.699 ± 0.018
VCTLLWLLSLVS	0.573 ± 0.017
VDEREKGSKQGK	0.689 ± 0.031
VDTGMAAGLTFG	0.685 ± 0.034
VDVHWSVLCPLG	0.851 ± 0.098
VDVSGVCEFVLG	0.706 ± 0.1
VDWLCGGLGGVR	0.742 ± 0.11
VDYARECALIGG	0.782 ± 0.11
VEARKKTLNTGP	0.713 ± 0.033
VEAVSLVFLYGV	0.552 ± 0.012
VEGSRDSLGCMD	0.679 ± 0.03
VEKQFSVWSFRG	0.68 ± 0.031
VELALPRGSTVV	0.6596 ± 0.005
VEMVVEFKFGTS	0.703 ± 0.18
VFCFRFLSFCPW	0.542 ± 0.026
VFCPSPGPLAFA	0.673 ± 0.072
VFCVFACLCIVF	0.522 ± 0.091
VFFLSYGPFLAM	0.5963 ± 0.0038
VFGGAGVGGDCG	0.669 ± 0.012
VFGKGRWDCFLI	0.727 ± 0.073
VFGLVGWCAGDC	0.715 ± 0.094
VFGSGLRATGAV	0.635 ± 0.086
VFKNRWLGGEKV	0.69 ± 0.012

Sequence	protein stability index
VFLLCSLPTFWR	0.662 ± 0.062
VFLLSPLLVPRD	0.647 ± 0.11
VFLVESFSPPNA	0.701 ± 0.029
VFPLWLRRPFPF	0.695 ± 0.041
VFTALALISYMQ	0.5917 ± 0.0022
VFVGLFCVLGRV	0.523 ± 0.0079
VFVRVVGDLRWE	0.578 ± 0.045
VGAGAGGGGWVL	0.782 ± 0.017
VGAGGLWCGGGY	0.83 ± 0.031
VGDCVVRGLWLS	0.639 ± 0.03
VGERGGIGARSG	0.673 ± 0.021
VGFGTGGAVGVE	0.687 ± 0.041
VGFPLVSSPLRL	0.566 ± 0.059
VGGAPLVSACCI	0.596 ± 0.022
VGGEWGLGVRPR	0.703 ± 0.014
VGGGGLSGGAER	0.678 ± 0.0093
VGGGGRRGKVWG	0.649 ± 0.035
VGGIGGWFCRGR	0.73 ± 0.13
VGGKSVVRAESS	0.645 ± 0.013
VGGLGRGTGSGP	0.683 ± 0.096
VGGTSWGIEKSS	0.649 ± 0.052
VGGVGEWCLVRL	0.6746 ± 0.0046
VGGVVGVGSVGV	0.775 ± 0.14
VGGWGGVGTCVW	0.711 ± 0.047
VGHGGCCGWGCG	0.786 ± 0.1
VGKQRISPSSPS	0.664 ± 0.018

Sequence	protein stability index
VGKRGQRRVARL	0.692 ± 0.021
VGLFGLCRVFGM	0.646 ± 0.023
VGLFMGSPFMET	0.693 ± 0.0087
VGLFRESLFRRG	0.714 ± 0.072
VGLSVRFPVANH	0.673 ± 0.037
VGMGAWVQQIVL	0.666 ± 0.043
VGQCVWRVGRSS	0.69 ± 0.044
VGRGGGGWRLEG	0.694 ± 0.078
VGRGGGVWRLEG	0.699 ± 0.045
VGRGGVRRLLQT	0.709 ± 0.037
VGRIGNWRFGAG	0.695 ± 0.0084
VGRVGEGGGGRG	0.679 ± 0.046
VGRWCCELVWGV	0.645 ± 0.022
VGRWVLEARGVV	0.715 ± 0.031
VGSGKYGVVGVG	0.518 ± 0.029
VGSMRRYCRTKI	0.792 ± 0.25
VGSPLSVCLSSR	0.702 ± 0.012
VGSSRRGCSGAE	0.685 ± 0.024
VGVQLLLSAWEK	0.715 ± 0.066
VGVSGVCGDWAM	0.67 ± 0.05
VGVSWSMYCANW	0.631 ± 0.11
VGVVGGSWEVVG	0.685 ± 0.031
VGVWTGGDVDCH	0.777 ± 0.086
VGWLCVLGGAQR	0.762 ± 0.045
VGWRVAVGWGLG	0.691 ± 0.083
VHFISPACSPPT	0.673 ± 0.058

Sequence	protein stability index
VHLYGRTAGRGV	0.816 ± 0.06
VHRYGGFRGEMS	0.702 ± 0.08
VHSGSVDVSSFS	0.697 ± 0.018
VHSSWRVAACGK	0.698 ± 0.031
VHVLLSGVICAL	0.471 ± 0.061
VIAEHCSKQGLI	0.639 ± 0.018
VIGGGRVLGIGG	0.653 ± 0.1
VIGGRQGVVRHR	0.68 ± 0.025
VIGIRNGADMSI	0.667 ± 0.013
VIPLSARGEEGD	0.7001 ± 0.0035
VIPTYESNDRQS	0.652 ± 0.064
VIQVRDLRLFSR	0.734 ± 0.028
VIRPMTVYSVVS	0.515 ± 0.029
VIRSLPSSALPL	0.662 ± 0.08
VITYKKKNTRKQ	0.673 ± 0.093
VKIYSSPFFCLI	0.57 ± 0.011
VKLSVITGCRVT	0.659 ± 0.092
VKSSIGWLKVGF	0.671 ± 0.15
VKSSSCSVLRSL	0.7 ± 0.038
VKTETNTDGKKR	0.67 ± 0.15
VKVAFSIASRVD	0.79 ± 0.0028
VLAGFVLNDWVP	0.731 ± 0.023
VLCRPLLPTSRL	0.772 ± 0.02
VLDRGGAGAVCV	0.649 ± 0.024
VLFATLHVMALK	0.55 ± 0.026
VLFDGSWSGSYL	0.741 ± 0.15

Sequence	protein stability index
VLGFGGVVLFFL	0.642 ± 0.06
VLGGGLGVLTWV	0.753 ± 0.018
VLGGSGFAGSPS	0.659 ± 0.014
VLGLGSGGVCGG	0.693 ± 0.023
VLGRLRGGRDRV	0.723 ± 0.023
VLGSVGGFVQRD	0.677 ± 0.036
VLGVFFGSVEGC	0.68 ± 0.05
VLLFALSPHPPS	0.724 ± 0.024
VLLPRIRPSYSL	0.674 ± 0.045
VLLRLVGLCQYL	0.50067 ± 0.0004
VLLSFLHLTASS	0.606 ± 0.03
VLPGCFSISAPP	0.7038 ± 0.0062
VLPLFSSFSRSP	0.674 ± 0.058
VLPPPPTRPLLP	0.743 ± 0.019
VLPRVLADVRST	0.685 ± 0.03
VLPTHCPPPSSR	0.715 ± 0.017
VLRGMSVFGLGE	0.74 ± 0.14
VLRGVNGLRCRS	0.6863 ± 0.0046
VLRIIMQCVFVR	0.549 ± 0.0064
VLRLGFYNINKL	0.676 ± 0.075
VLRVSRHLKAVK	0.65 ± 0.024
VLSFALGSAGGR	0.678 ± 0.069
VLSLCLSVRSFV	0.562 ± 0.017
VLSLHPRRATLL	0.615 ± 0.03
VLSVETGTSGLF	0.655 ± 0.01
VLTPLWIANTFL	0.673 ± 0.057

Sequence	protein stability index
VLVAWWGLGGGV	0.637 ± 0.069
VLWLGSFKSPRR	0.727 ± 0.022
VMGAGGRTVAEW	0.719 ± 0.019
VMGIGAAVRRVR	0.713 ± 0.02
VMVGRVLEKGVV	0.654 ± 0.069
VMVMELHGYPVV	0.655 ± 0.044
VMVVVGLQGTMV	0.5962 ± 0.0032
VNCAYCRERKRD	0.7209 ± 0.0031
VPCCSAVDLLVS	0.5999 ± 0.0045
VPCYSSACHGDA	0.669 ± 0.1
VPFYHIFPPFRP	0.777 ± 0.088
VPFYSPPCYSCL	0.628 ± 0.04
VPLRVSLGCDAF	0.67 ± 0.04
VPPASLVCLTSP	0.667 ± 0.0015
VPPNTLTAPHLF	0.844 ± 0.046
VPPPSPTLSPHP	0.656 ± 0.28
VPPPTAPVPPRP	0.749 ± 0.096
VPRPPPHPPGDV	0.622 ± 0.016
VPRTFQDLLPAP	0.707 ± 0.04
VPSLFLYGNPMY	0.71 ± 0.036
